Data as given in US20200317768A1 (published 2020).
Residue numbers refer to the chain shown, from its start. In names and notes the source's numbering stands. One block for each binder: values may come before it.

Experiments:
[1] = target: T1, cynomolgus monkey FcγRIIa3 extracellular domain, C-terminal His-tag (cynomolgus monkey); assay: SPR (BIACORE), antibody captured, soluble FcgR as analyte, 25C
T1 construct: also called cyno FcγRIIa3; FcgRIIa3; not shown: His-tag added to the C-terminus
T1 chain: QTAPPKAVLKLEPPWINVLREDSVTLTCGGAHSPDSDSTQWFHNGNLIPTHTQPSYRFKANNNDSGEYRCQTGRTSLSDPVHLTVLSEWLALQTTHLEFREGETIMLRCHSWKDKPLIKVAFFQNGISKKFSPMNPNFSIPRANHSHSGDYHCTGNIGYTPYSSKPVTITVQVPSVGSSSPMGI
Method: (§1) The kinetic analysis of interactions between these antibodies and FcγR was carried out using BIACORE® T200 or BIACORE® 4000 (GE Healthcare). HBS-EP+ (GE Healthcare) was used as the running buffer, and the measurement temperature was set to 25° C. A chip produced by immobilizing Protein A. Protein A/G or mouse anti-human IgG kappa light chain (BD Biosciences) onto a Series S Sensor Chip CM4 or CM5 (GE Healthcare) by the amine-coupling method was used. […] After the measurement, the antibody captured on the chip was washed off by allowing reaction with 10 mM glycine-HCl, pH1.5 and 25 mM NaOH so that the chip was regenerated and used repeatedly. The sensorgrams obtained as measurement results were analyzed by the 1:1 Langmuir binding model using the BIACORE® Evaluation Software to calculate the binding rate constant ka (L/mol/s) and dissociation rate constant kd (l/s), and the dissociation constant KD (mol/L) was calculated from these values. […] Regarding such interactions, KD values were calculated using the following 1:1 binding model described in BIACORE® T100 Software Handbook BR1006-48 Edition AE.
The behavior of interacting molecules according to the 1:1 binding model on BIACORE® can be described by Equation 1: Req=C·R max/(KD+C)+RI, wherein, Req is a plot of steady-state binding levels to analyte concentration. C is concentration, RI is bulk refractive index contribution in the sample, and Rmax is analyte binding capacity of the surface. When this equation is rearranged, KD can be expressed as Equation 2: KD=C·Rmax/(Req−RI)−C. KD can be calculated by substituting the values of Rmax, RI, and C into Equation 1 or Equation 2. From the current measurement conditions, RI=0, C=2 μmol/L can be used.

[2] = target: T2, cynomolgus monkey FcγRIIa3 extracellular domain, C-terminal His-tag (cynomolgus monkey); assay: SPR; KD of SG1 / KD of variant;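 also: relative to parent M103205H795-SG1 carrying the SG1 human heavy chain constant region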
T2 construct: also called cyno FcγRIIa3; FcgRIIa3
T2 chain: T1 chain
Method: as §1

[3] = target: T3, human FcγRIIaH extracellular domain, C-terminal His-tag (human, UniProt P12318 34-217); assay: SPR; KD of SG1 / KD of variant;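 also: relative to parent M103205H795-SG1 carrying the SG1 human heavy chain constant region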
T3 construct: also called human FcγRIIa (type H); FcgRIIaH
T3 sequence: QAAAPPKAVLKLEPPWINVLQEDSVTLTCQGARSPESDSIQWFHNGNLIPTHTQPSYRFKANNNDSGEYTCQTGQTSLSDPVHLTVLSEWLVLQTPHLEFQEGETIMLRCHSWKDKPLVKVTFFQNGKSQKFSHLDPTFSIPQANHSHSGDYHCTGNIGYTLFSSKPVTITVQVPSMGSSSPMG
Method: as §1

[4] = target: T4, human FcγRIIb extracellular domain, C-terminal His-tag (human, UniProt P31994 43-217); assay: SPR; KD of SG1 / KD of variant;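 also: relative to parent M103205H795-SG1 carrying the SG1 human heavy chain constant region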
T4 construct: also called FcgRIIb (human)
T4 sequence: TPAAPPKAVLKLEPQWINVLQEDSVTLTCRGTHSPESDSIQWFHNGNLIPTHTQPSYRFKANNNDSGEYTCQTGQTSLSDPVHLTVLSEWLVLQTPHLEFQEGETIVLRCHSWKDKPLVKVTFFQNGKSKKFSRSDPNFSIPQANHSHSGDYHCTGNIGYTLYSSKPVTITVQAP
Method: as §1

[5] = target: T5, cynomolgus monkey FcγRIIa1 extracellular domain, C-terminal His-tag (cynomolgus monkey); assay: SPR (BIACORE) 25C, antibody captured, FcgR as analyte
T5 construct: also called cyno FcγRIIa1; FcgRIIa1
T5 chain: T1 chain with T95P, A121T, S128A, P133H, N135D
Method: as §1

[6] = target: T6, cynomolgus monkey FcγRIIa2 extracellular domain, C-terminal His-tag (cynomolgus monkey); assay: as above
T6 construct: also called cyno FcγRIIa2; FcgRIIa2
T6 chain: T1 chain with I127K, K130N, P133H, R142Q
Method: as §1

[7] = target: T2, cynomolgus monkey FcγRIIa3 …; assay: as above
Method: as §1

[8] = target: T7, cynomolgus monkey FcγRIIb extracellular domain, C-terminal His-tag (cynomolgus monkey); assay: as above
T7 construct: also called cyno FcγRIIb; cynoFcγRIIb
T7 chain: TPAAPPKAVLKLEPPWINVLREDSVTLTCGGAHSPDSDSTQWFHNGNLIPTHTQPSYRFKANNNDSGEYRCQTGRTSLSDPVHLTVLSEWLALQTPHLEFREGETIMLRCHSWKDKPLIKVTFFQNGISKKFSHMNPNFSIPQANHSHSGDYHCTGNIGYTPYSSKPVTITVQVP
Method: as §1

[9] = target: T8, human FcγRIIaR extracellular domain, C-terminal His-tag (human, UniProt P12318 34-217); assay: as above
T8 construct: also called human FcγRIIa (type R); FcgRIIaR
T8 chain: T3 sequence with H134R
Method: as §1

[10] = target: T4, human FcγRIIb extracellular domain, …; assay: as above
Method: as §1

B1: MS1032LO06-SG1 (M103205H795-SG1/M103202L889-SK1) (antibody, human IgG1, kappa)
heavy: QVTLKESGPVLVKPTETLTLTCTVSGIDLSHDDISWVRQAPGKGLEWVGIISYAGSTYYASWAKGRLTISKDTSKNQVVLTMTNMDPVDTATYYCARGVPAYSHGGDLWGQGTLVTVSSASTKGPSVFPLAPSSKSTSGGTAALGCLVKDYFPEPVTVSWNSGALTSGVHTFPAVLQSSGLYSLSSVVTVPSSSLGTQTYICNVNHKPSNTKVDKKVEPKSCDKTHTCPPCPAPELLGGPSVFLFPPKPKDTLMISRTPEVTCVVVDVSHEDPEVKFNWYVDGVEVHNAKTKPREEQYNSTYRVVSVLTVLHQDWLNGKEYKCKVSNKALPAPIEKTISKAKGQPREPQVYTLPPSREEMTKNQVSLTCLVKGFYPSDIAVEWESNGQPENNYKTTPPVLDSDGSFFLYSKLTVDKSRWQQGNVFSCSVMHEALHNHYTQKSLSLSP
light: DIVMTQSPATLSLSPGERATLSCTSSQSVYHANWLSWFQQKPGQPPKLLIYWASTLAYGVPSRFSGSGSGTDFTLTISSLQPEDAATYYCAGGYGGGRYAFGQGTKVEIKRTVAAPSVFIFPPSDEQLKSGTASVVCLLNNFYPREAKVQWKVDNALQSGNSQESVTEQDSKDSTYSLSSTLTLSKADYEKHKVYACEVTHQGLSSPVTKSFNRGEC
notes: Anti-latent myostatin antibody
Kd [1]: 8600 nM

B2: MS_M103205H795-SG1/M103202L889-SK1 (antibody, human IgG1, kappa)
heavy: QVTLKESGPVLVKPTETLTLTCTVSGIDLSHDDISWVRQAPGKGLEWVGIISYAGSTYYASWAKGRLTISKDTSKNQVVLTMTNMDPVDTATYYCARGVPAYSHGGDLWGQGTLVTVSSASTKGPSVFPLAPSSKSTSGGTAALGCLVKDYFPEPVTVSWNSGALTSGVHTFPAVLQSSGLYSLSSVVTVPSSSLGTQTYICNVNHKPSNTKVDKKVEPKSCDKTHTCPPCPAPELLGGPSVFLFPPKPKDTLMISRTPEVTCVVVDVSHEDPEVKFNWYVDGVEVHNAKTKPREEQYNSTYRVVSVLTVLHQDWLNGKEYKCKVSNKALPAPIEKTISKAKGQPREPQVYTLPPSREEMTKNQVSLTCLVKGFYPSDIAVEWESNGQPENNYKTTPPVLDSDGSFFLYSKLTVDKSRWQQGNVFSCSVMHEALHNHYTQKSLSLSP
light: B1 light
notes: also called MS1032LO06-SG1
KD fold (SG1 = 1) [2]: 1 fold | KD fold (SG1 = 1) [3]: 1 fold | KD fold (SG1 = 1) [4]: 1 fold | Kd [5]: 4.2 µM | Kd [6]: 5.2 µM | Kd [7]: 15 µM | Kd [8]: 1.7 µM | Kd [9]: 1.4 µM | Kd [10]: 4.7 µM

B3: MS1032LO06-MY201 (M103205H795-MY201/M103202L889-SK1) (antibody, human IgG1, kappa)
heavy: QVTLKESGPVLVKPTETLTLTCTVSGIDLSHDDISWVRQAPGKGLEWVGIISYAGSTYYASWAKGRLTISKDTSKNQVVLTMTNMDPVDTATYYCARGVPAYSHGGDLWGQGTLVTVSSASTKGPSVFPLAPSSKSTSGGTAALGCLVKDYFPEPVTVSWNSGALTSGVHTFPAVLQSSGLYSLSSVVTVPSSSLGTQTYICNVNHKPSNTKVDKKVEPKSCDKTHTCPPCPAPELLNGPSVFLFPPKPKDTLMISRTPEVTCVVVDVSDEDPEVKFNWYVDGVEVHNAKTKPREEQYNSTYRVVSVLTVLHQDWLNGKEYKCKVSNKALPKPIEKTISKAKGQPREPQVYTLPPSREEMTKNQVSLTCLVKGFYPSDIAVEWESNGQPENNYKTTPPVLDSDGSFFLYSKLTVDKSRWQQGNVFSCSVMHEALHNHYTQKSLSLSP
light: B1 light
notes: CH MY201 = SG1 with G236N/H268D/A330K (EU numbering); also called MS103205H795-MY201
Kd [1]: 1800 nM

B7: MS1032LO06-MY352 (M103205H795-MY352/M103202L889-SK1) (antibody, human IgG1, kappa, name in EU numbering)
heavy: B3 heavy with Q313R, D415R
light: B1 light
notes: Printed substitutions: G236N/H268D/Q311R/A330K/D413R (EU numbering); also called MS103205H795-MY352
Kd [1]: 2200 nM

B8: MS1032LO06-PK57 (M103205H795-PK57/M103202L889-SK1) (antibody, human IgG1, kappa)
heavy: B3 heavy with Q313R, N386R, D415R
light: B1 light
notes: CH PK57 = SG1 with G236N/H268D/Q311R/A330K/N384R/D413R (EU numbering); also called MS103205H795-PK57
Kd [1]: 3100 nM

B9: M103205H795-MY009/M103202L889-SK1 (antibody, human IgG1, kappa)
heavy: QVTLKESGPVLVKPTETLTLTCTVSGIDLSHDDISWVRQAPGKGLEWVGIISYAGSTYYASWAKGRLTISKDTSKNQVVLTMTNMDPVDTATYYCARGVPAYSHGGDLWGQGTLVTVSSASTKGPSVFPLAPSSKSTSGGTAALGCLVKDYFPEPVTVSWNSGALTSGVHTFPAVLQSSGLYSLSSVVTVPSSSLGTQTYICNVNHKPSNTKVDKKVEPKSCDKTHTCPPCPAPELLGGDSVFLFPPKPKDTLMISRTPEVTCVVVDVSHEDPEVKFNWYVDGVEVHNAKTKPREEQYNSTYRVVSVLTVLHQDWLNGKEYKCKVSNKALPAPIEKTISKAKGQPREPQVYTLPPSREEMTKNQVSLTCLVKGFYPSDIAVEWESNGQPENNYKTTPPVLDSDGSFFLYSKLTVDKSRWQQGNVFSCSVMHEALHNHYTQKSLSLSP
light: B1 light
notes: CH MY009 = SG1 with P238D (EU numbering); also called MS1032LO06-MY009
KD fold (SG1 = 1) [2]: 0.5 fold | KD fold (SG1 = 1) [3]: 0.01 fold | KD fold (SG1 = 1) [4]: 3.3 fold | Kd [5]: 25 µM | Kd [6]: 26 µM | Kd [7]: 31 µM | Kd [8]: 4.9 µM | Kd [9]: 20 µM | Kd [10]: 1.4 µM

Further lines, results first:

Kd [1]: 2500 nM
B4: MS1032LO06-PK56 (M103205H795-PK56/M103202L889-SK1) (antibody, human IgG1, kappa)
heavy: B3 heavy with Q313R, P345R, D415R
light: B1 light
notes: CH PK56 = SG1 with G236N/H268D/Q311R/A330K/P343R/D413R (EU numbering); also called MS103205H795-PK56

Kd [1]: 2000 nM
B5: MS1032LO06-PK55 (M103205H795-PK55/M103202L889-SK1) (antibody, human IgG1, kappa)
heavy: B3 heavy with Q313R, P345R
light: B1 light
notes: CH PK55 = SG1 with G236N/H268D/Q311R/A330K/P343R (EU numbering); also called MS103205H795-PK55

Kd [1]: 2200 nM
B6: MS1032LO06-MY351 (M103205H795-MY351/M103202L889-SK1) (antibody, human IgG1, kappa)
heavy: B3 heavy with Q313R, D415K
light: B1 light
notes: CH MY351 = SG1 with G236N/H268D/Q311R/A330K/D413K (EU numbering); also called MS103205H795-MY351
